Experimental data from patent publication US20080292615.
Changes are numbered by the printed parent chain.

Columns and labels:
[1] = system: T1, Peptide P1 (corneodesmosin fragment with L at position 40 of L20815)
T1 sequence: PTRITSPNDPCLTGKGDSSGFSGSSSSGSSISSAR

[2] = system: T2, Peptide P2 (corneodesmosin fragment with F at position 40 of L20815)
T2 sequence: T1 sequence with L12F

chymotrypsin
products of proteolysis after exposure of the peptide to chymotrypsin [1]: peptide P1 with L at position 40 of L20815 gives two products of proteolysis: PTRITSPNDPCL40TGKGDSSGF (SEQ ID NO 23) and SGSSSSGSSISSAR (SEQ ID NO 24)
products of proteolysis after exposure of the peptide to chymotrypsin [2]: peptide P2 with F at position 40 of L20815 gives three small peptides PTRITSPNDPCF (SEQ ID NO 25), TGKGDSSGF (SEQ ID NO 26) and SGSSSSGSSISSAR (SEQ ID NO 24)
